In US20140086913A1 (Gilead, published 2014):
One block for each binder: values may come before it.

What was measured:
mouse ECD-DDR1-Fc [1] = target: T1, mouse ECD-DDR1-Fc (mouse; human, UniProt Q03146 22-414); experiment: ELISA, coated antigen, apparent KD
T1 construct: also called mouse DDR1-ECD; wild-type mouse DDR1-ECD; not shown: human IgG1 Fc of the vector pFuse-hIgG1-Fc1 (Invivogen)
T1 sequence: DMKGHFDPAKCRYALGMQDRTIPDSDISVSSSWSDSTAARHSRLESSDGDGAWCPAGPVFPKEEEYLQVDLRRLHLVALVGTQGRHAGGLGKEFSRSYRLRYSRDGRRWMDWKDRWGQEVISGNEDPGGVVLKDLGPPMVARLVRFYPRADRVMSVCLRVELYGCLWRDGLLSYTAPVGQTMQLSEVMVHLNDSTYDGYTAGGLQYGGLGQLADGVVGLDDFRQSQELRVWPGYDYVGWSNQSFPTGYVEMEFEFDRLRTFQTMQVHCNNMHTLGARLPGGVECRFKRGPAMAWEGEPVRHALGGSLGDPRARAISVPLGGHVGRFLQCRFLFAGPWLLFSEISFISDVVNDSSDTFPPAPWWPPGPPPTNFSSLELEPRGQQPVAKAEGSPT
Procedure, shortened: (§1)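 Plates coated overnight at 4° C with 2 μg/mL purified tagged DDR1 ECD protein, BSA-blocked; serially diluted murine anti-DDR1 mAbs bound 1 hr at room temperature, detected with anti-mouse IgG-HRP and TMB (OD 450). Apparent KD taken as C-parameter of 4-parameter logistic fit of OD versus antibody concentration.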

[2] = target: DDR1 endogenously expressed on human cancer cell lines (T47D, HCT-116, A431) (human) (UniProt Q08345); experiment: cell-based or functional assay
[3] = target: T2, mouse DDR1 stably expressed on HEK293 cells (mouse, UniProt Q03146 20-911); experiment: flow cytometry, column without head (taken as HEK293/mouse DDR1)
T2 construct: whole, on cells; also called murine DDR1
T2 sequence (looked up): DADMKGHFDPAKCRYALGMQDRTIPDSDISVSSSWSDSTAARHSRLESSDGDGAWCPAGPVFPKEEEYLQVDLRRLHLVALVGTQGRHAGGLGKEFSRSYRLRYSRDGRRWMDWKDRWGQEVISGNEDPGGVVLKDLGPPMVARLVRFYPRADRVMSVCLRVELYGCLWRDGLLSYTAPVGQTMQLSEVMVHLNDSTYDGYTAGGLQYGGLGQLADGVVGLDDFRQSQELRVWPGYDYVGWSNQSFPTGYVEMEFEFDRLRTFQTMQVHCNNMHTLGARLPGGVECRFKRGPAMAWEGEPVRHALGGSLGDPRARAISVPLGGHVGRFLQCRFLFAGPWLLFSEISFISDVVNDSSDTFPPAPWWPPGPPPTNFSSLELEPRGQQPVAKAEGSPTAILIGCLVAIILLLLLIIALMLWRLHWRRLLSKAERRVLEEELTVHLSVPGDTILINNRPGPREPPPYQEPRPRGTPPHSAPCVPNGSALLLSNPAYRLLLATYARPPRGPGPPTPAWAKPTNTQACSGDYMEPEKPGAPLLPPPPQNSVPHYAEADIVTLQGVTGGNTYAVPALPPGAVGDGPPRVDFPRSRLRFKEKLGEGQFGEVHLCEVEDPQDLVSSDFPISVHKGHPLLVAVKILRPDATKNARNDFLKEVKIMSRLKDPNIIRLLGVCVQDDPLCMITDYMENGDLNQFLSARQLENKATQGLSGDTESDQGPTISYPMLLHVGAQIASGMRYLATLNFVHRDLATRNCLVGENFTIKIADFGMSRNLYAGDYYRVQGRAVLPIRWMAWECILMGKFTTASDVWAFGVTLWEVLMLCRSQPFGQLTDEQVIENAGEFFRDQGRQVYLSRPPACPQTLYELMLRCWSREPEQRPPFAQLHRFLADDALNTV
Description: Additional monoclonal antibodies were obtained from individual hybridomas in Example 1 and were characterized for their properties.
Cells were cultured in DMEM with 10% FBS and 0.8 mg/mL hygromycin. When cells reached 60-80% confluence, they were centrifuged at 1,200 rpm for 5 minutes, suspended in FACS buffer (1×PBS, 1% BSA), and aliquoted into a 96-well plate at 1×10⁶ cells per well. The anti-DDR1 monoclonal antibodies or appropriate isotype controls at 2 μg per 1×10⁶ cells were added and incubated at 4° C. for 1 hr. The cells were washed twice with FACS buffer then stained with the anti-IgG-PE secondary antibody at 10 μL per well at 4° C. for 1 hr. The cells were washed again and measured for the MFI values or signals using flow cytometry (LSR Fortessa instrument, BD Biosciences). Background MFI signals from vector-only cells (i.e. no DDR1 or DDR2 expression) was subtracted from those of the cells treated with antibodies. Higher MFI values or signals indicated increased binding or specificity of the anti-DDR1 antibodies to the DDR1 on the cell surface.

[4] = target: DDR1 with a ProLink Tag (PK) in engineered U20S cells (DiscoveRx), Q08345; experiment: cell-based or functional assay
[5] = target: DDR1 stably over-expressed in HCT-116 tumor cells, Q08345; experiment: cell-based or functional assay
[6] = target: DDR1 stably over-expressed in HCT-116 tumor cells (UniProt Q08345); experiment: cell-based or functional assay
DDR1 stably over-expressed in HCT-116 tumor cells, sequence (Q08345 19-913): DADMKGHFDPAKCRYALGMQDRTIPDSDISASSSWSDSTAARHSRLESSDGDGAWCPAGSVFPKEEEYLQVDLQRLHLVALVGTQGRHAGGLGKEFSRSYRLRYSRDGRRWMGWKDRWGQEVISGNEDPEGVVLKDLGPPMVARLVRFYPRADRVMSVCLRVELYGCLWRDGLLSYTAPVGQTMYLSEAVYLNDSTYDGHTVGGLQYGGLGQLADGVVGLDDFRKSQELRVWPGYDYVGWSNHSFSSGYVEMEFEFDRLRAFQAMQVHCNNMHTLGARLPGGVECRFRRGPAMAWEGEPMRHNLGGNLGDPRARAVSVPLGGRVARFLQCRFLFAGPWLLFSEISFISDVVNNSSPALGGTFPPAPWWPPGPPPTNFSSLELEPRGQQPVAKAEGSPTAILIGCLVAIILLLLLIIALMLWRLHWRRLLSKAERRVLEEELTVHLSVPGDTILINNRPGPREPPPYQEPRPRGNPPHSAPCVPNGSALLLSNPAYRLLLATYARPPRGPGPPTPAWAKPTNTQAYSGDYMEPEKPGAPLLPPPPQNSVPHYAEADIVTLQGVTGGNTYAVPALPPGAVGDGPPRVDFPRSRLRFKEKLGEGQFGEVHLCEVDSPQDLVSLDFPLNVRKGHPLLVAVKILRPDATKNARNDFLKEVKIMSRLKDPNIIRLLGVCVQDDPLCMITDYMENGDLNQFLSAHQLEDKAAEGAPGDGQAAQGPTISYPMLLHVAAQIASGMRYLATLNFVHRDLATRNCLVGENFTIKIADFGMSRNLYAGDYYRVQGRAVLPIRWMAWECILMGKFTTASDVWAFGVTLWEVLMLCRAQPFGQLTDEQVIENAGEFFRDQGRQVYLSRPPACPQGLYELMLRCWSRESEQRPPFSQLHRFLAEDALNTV

[7] = target: DDR1 with a ProLink Tag (PK) in engineered U20S cells (DiscoveRx) (UniProt Q08345); experiment: cell-based or functional assay
mouse ECD-DDR1-Fc [8] = target: T1, mouse ECD-DDR1-Fc; experiment: ELISA, coated antigen
Procedure, shortened: as §1

B1: AB2092 (antibody, V domains shown)
VH: QIQLVQSGPELKKSGETVKISCKASGYTFTDYGMNWVKQAPGKGLKWMGWINTYTGKSTYADDFKGRFAFSLETSASTTYLQITNLKNEDMATYFCARWADYFGSSYLFASWGQGTLVTVSA
VL: DVLMTQTPLSLPVSLGDQASISCRSSQSIVHSDGNTYLEWYLQKPGQSPKLLIYKVSNRFSGVPDRFSGSGSGTDFTLKISRVEAEDLGIYYCFQGSHVPWTFGGGTKLEIKR
notes: mouse hybridoma mAb
Kd (mouse ECD-DDR1-Fc [1]): 1.19 nM | EC50, DDR1 phospho-specific ELISA (T47D) [2]: 0.52 nM | EC50, cluster formation assay (A431 cells) [2]: 4.18 nM | Maximal inhibition, DDR1 phospho-specific ELISA (T47D) [2]: 100% | MFI [3]: 22800 MFI | Mean EC50, DDR1 Tyr513 phosphorylation assay (U20S) [4]: 2.45 nM | EC50, NFkB luciferase reporter (HCT-116, collagen II) [5]: 1.13 nM | EC90, NFkB luciferase reporter (HCT-116, collagen II) [5]: 4.73 nM

B2: AB2039 (antibody, V domains shown)
VH: EVQLVESGGGLVQPGGSLKFSCAASGFTFSSYGMSWVRQTPDKRLELVAIINSHGFSTYYPDSVKGRFTISRDNAKNTLYLQMSSLKSEDTAIYYCARGGYGNYGMDYWGQGTSVTVSS
VL: DIVLTQSPASLAVSLGQRATISCRASESVDSYGNSFMHWYQQKVGQPPKLLIFRASNIESGIPARFSGSGSRTDFTLTINSVEADDVATYYCQQSNEAPYTFGGGTKLEIKR
notes: mouse hybridoma mAb; also called AB0039
Kd (mouse ECD-DDR1-Fc [1]): 2.37 nM | MFI [3]: 10500 MFI | Mean EC50, DDR1 Tyr513 phosphorylation assay (U20S) [4]: 1.1 nM | EC50, NFkB luciferase reporter (HCT-116, collagen II) [5]: 1.63 nM | EC50, collagen-mediated relocalization of DDR1 (HCT-116) [5]: 0.45 nM | EC90, NFkB luciferase reporter (HCT-116, collagen II) [5]: 4.61 nM

B3: AB2078 (antibody, V domains shown)
VH: EIQLQQSGPELVNPGASVKVSCKASGYSFTDYNMYWVKQSHGKSLEWIGYIDPYNGGTSYNQKFKGKATLTVDKSSSTAFMHLNSLTSEDSAVYYCAREYYGSRLWYFDVWGAGTAVTVSS
VL: DIVMTQSPSSLAMSVGQKVTMSCKSSQSLLNRNNQKNYLAWYQQKPGQSPKLLVYFASTRESGVPDRFIGSGSGTDFTLTLSSVRAEDLAENFCQQHYSTPFTFGSGTRLEIKR
notes: mouse hybridoma mAb
EC50, NFkB luciferase reporter (HCT-116, collagen II) [6]: 3.01 nM | EC90, NFkB luciferase reporter (HCT-116, collagen II) [6]: 6.66 nM | Mean EC50, DDR1 Tyr513 phosphorylation assay (U20S) [7]: 1.33 nM | Kd (mouse ECD-DDR1-Fc [1]): 10.9 nM | MFI [3]: 24200 MFI

B6: AB2004 (antibody, V domains shown)
VH: DVHLQESGPDLVKPSQSLSLTCTVTDYSITSGYGWHWIRQFPGNKLEWMGYIHYGGSTKYNSSLKSRISITRDTSKNQFFLQLKSVTTDDTGTYYCATSGNYGFAYWGQGTLVTVSA
VL: DIVLTQSPTSLAVSLGQRATMSCRASESVDDYGTSFMHWYQQKPGQPPKLLIYRASNLESGIPARFSGSGSRADFTLSINPVEPDDVATYYCQQSNEDPFTFGSGTKLEIKR
notes: mouse hybridoma mAb
MFI [3]: 9500 MFI | Mean EC50, DDR1 Tyr513 phosphorylation assay (U20S) [4]: 1.85 nM | EC50, NFkB luciferase reporter (HCT-116, collagen II) [5]: 3.7 nM | EC50, collagen-mediated relocalization of DDR1 (HCT-116) [5]: 1.4 nM | EC90, NFkB luciferase reporter (HCT-116, collagen II) [5]: 6.95 nM

Results, then the binder that gave them:

EC50, DDR1 phospho-specific ELISA (T47D) [2]: 0.72 nM | EC50, cluster formation assay (A431 cells) [2]: 2.03 nM | Maximal inhibition, DDR1 phospho-specific ELISA (T47D) [2]: 100% | binding result (mouse ECD-DDR1-Fc [8]): no binding | Mean EC50, DDR1 Tyr513 phosphorylation assay (U20S) [4]: 2.65 nM | EC50, NFkB luciferase reporter (HCT-116, collagen II) [5]: 1.12 nM | EC50, collagen-mediated relocalization of DDR1 (HCT-116) [5]: 2.2 nM | EC90, NFkB luciferase reporter (HCT-116, collagen II) [5]: 4.17 nM
B4: AB2041 (antibody, V domains shown)
VH: QVQLHQSGSELAKPGASVKMSCKASGYIFTTYWIHWLKQRPGQGLEWIGFINPDTDYTEYNQKFKDKATLTADKSSNTAYVQLSSLTSEDSAVYYCARGNYGYDGLVYWGLGTLVTVSA
VL: SIVMTQTPKFLLVSAGDRVTITCKASQSVSTDVAWYQQKPGQSPKLLIYYASNRYTGVPDRFTGSGYGTDFTFTISTVQAEDLAVYFCQQDYNSYTFGGGTKLEIKR
notes: mouse hybridoma mAb

Kd (mouse ECD-DDR1-Fc [1]): 33.7 nM | MFI [3]: 7140 MFI | Mean EC50, DDR1 Tyr513 phosphorylation assay (U20S) [4]: 7.6 nM
B5: AB2010 (antibody, V domains shown)
VH: QVQLKQSGPGLVQPSQSLSITCTVSGFSFTGYGIHWVRQSPGKGLEWLGVIWSGGITDYNAAFISRLSISMDSSKGQVFFKMNSLQANDTAIYYCARRSTTVVADYAMDYWGQGTSVTVSS
VL: SIVMTQTPKFLLVSAGDRVTITCKASQSVSNDVAWYQQKPGQSPKLLIYYASNRYTGVPDRFTGSGYGTDFTFTINTVQAEDLAVYFCQQDYTSPLTFGAGTKLELKR
notes: mouse hybridoma mAb
